According to patent publication US20260184794A1, “ANTIBODIES AGAINST INTEGRIN ALPHA 11 BETA 1 AND USES THEREOF” (Momenta Pharmaceuticals, Inc., priority 2022, published 2026):
Where two headings read alike, the source gives them in different places.

Tests used:
mouse α11β1 = mouse α11β1 (Mus musculus, UniProt P61622); test: Cross-reactivity with mouse α11β1 (SPR); format: binding; conditions: for Cross reacts with mouse α11β1: yes/no
CHO-hu α11 [1] = target: T1, CHO-hu α11 (Homo sapiens, UniProt Q9UKX5); test: FACS antibody binding to CHO-K1 cells expressing human α11
T1 construct: expressed in transfected cells; host or cells: CHO-K1
T1 sequence (Q9UKX5 23-1188): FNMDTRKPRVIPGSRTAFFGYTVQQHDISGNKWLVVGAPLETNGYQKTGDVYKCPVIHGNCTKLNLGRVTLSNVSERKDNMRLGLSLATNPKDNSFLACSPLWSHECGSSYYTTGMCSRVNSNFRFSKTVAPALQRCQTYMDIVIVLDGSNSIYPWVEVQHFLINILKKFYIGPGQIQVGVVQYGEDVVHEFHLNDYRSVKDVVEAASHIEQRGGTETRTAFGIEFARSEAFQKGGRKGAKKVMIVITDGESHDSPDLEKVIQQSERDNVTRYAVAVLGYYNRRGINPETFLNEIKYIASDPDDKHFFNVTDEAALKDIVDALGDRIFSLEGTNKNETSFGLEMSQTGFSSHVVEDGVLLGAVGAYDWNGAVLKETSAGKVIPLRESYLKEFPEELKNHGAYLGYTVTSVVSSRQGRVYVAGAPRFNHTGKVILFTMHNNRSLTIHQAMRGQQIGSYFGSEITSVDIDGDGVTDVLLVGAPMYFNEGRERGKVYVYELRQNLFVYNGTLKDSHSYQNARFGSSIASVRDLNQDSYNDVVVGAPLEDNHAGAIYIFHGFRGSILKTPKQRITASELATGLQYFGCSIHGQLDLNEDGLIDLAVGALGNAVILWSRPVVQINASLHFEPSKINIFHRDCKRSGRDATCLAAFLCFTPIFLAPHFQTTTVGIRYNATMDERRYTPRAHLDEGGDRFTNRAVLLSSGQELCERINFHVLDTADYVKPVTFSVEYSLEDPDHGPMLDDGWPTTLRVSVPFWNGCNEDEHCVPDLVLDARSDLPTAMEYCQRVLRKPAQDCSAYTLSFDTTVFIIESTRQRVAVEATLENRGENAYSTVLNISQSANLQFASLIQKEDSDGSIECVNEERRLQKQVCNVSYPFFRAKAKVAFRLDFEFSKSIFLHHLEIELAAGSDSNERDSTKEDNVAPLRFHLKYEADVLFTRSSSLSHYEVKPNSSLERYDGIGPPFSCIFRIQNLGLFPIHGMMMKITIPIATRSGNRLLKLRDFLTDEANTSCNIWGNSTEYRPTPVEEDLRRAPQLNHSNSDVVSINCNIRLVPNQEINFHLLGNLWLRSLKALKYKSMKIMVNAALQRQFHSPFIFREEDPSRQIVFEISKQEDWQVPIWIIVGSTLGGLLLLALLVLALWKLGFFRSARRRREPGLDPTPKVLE
T1 sequence (P05556 21-798 partner): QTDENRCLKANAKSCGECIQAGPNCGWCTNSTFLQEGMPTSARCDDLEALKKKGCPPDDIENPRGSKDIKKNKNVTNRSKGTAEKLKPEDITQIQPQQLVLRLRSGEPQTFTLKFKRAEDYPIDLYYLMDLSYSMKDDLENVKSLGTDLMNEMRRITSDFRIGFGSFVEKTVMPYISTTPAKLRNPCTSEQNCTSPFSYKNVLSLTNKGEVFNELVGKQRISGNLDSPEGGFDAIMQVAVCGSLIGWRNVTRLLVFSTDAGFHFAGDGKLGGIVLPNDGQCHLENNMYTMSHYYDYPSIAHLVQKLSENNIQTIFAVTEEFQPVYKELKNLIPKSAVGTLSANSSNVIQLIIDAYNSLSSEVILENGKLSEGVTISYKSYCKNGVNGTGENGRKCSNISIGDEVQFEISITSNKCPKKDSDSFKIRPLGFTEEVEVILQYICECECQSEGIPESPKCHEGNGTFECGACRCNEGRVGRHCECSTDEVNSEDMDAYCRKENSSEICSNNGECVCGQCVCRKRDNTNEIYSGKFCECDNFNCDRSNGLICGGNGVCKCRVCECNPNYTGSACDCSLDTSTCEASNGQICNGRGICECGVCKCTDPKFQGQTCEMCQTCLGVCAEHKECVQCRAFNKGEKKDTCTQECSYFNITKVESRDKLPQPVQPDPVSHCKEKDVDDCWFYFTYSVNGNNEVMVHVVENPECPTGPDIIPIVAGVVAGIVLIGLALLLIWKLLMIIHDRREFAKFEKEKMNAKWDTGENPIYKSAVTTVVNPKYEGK
Description: 200,000 cells (wild-type CHO-K1 cells or CHO-K1 cells expressing human α11) were incubated with each antibody at desired concentrations in FACS buffer for 30 min at 4° C. Then, the cells were washed with FACS buffer and incubated with secondary antibody at 1:100 dilution for 30 minutes at 4° C. Cells were then washed and fixed with 1% PF A in PBS for 20 minutes at room temperature; washed again and read on a cytometer in FACS buffer.

[2] = system: CHO cell lines expressing α11; test: Collagen gel contraction assay; format: cell-based
Description: 24-well plates were blocked with 2% BSA in PBS overnight at 37° C. The following day, the plates were washed 3 times with PBS before being used in the assay. Human CHO cell lines expressing all were harvested and resuspended at 1.25×10^6 in ExpiCHO Expression Medium (Gibco™ Cat #A2910002). The collagen gel solution was prepared by diluting 3 mg/mL stock collagen type I (Gibco™ Collagen I Rat Protein, Tail Cat #A1048301) to I mg/mL in the media containing the CHO cells. Sodium hydroxide was added to the solution to neutralize the pH and 400 μL of the collagen solution was added to each well of the 24-well plates. For the wells where the antibodies were included in the collagen gel solution, CHO cells were prepared at 2.5×10^6 and the antibodies were prepared at 2× final concentration in ExpiCHO media. The cells and antibodies were then combined 1:1 before the addition of the stock collagen type I. The gels were allowed to polymerize for 60 minutes at 37° C. Antibodies were added to the ExpiCHO media, which was then layered on top of the polymerized gel ([…]). The gels were incubated for 6 days at 37° C. before gel contraction was quantified. Images of each well were analyzed using Image J and gel contraction was determined as a percentage of the initial gel area.

[3] = system: Precision cut kidney slices (PCKS); test: Human fibrotic precision cut kidney slices (PCKS) treated with TGF-β1 and PDGFββ, secreted mediators; format: cell-based; conditions: increasing antibody doses, dose dependent; for inhibition of secreted Col1a1: FIG. 2; for inhibition of secreted IL-11: FIG. 3
Description: Precision cut kidney slices (PCKS) were treated with TGF-β1 and PDGFββ in the presence or absence of Alk5i and increasing doses of anti-α11β1 antibodies. The antibodies provided an inhibition of secreted pro-fibrotic and pro-inflammatory mediators Col1a1 (1994-01-C7 FIG. 2A, 79E3E3 FIG. 2B, and 16E10 FIG. 2C) and IL-11 (1994-01-C7 FIG. 3A, 79E3E3 FIG. 3B, and 16E10 FIG. 3C) in a dose dependent manner.

Pulmonary Myofibroblast = test: FACS antibody binding to pulmonary myofibroblasts (HPF/MF); parameters: species or system human; conditions: Table 11, 1994-01-C7 variants, FIG. 4B
Description: Human Pulmonary Fibroblasts (ScienCell) were cultured in complete Fibroblast Growth Medium (ScienCell) until 80% confluent in T-150 flasks. Cells were washed and harvested using Accutase. Cells were seeded into T-150 flasks at 7,500 cells/cm^2 in complete FGF and cultured for 72 hours. Cells were then washed and starved in serum reduced medium for 24 hours. After starvation, cells were treated with TGFβ1 (R&D Systems) for 72 hours. Cells were harvested using Accutase and seeded in 96-well conical bottom plates. Cells were blocked with Heat Inactived Fetal Bovine Serum (Gibco) for 30 minutes at 4° C. Cells were then incubated with anti-al I antibodies at the doses described in each figure for 30 minutes at 4° C. A human anti-al I antibody (Creative BioLabs) was included as a positive control as well as the appropriate IgG isotype negative controls. Cells were washed twice and incubated with PE conjugated secondary antibodies specific to the IgG class of the anti-α11 antibodies being tested for 30 minutes at 4° C. Cells were washed twice and fixed in 1% PF A for 30 minutes. Cells were acquired on a FACS Verse […]. Data were analyzed by gating on single cells and determining the geometric Mean Fluorescence Intensity (gMFI) in the PE channel for each sample.

CHO-hu α11 [4] = target: T1, CHO-hu α11; test: Cell adhesion inhibition on type I collagen (xCelligence); format: cell-based
Description: 0.6×10^6 cells/mL were incubated with each antibody at a range of concentrations for 20 minutes at 37° C. E-Plate VIEW 96 PET plate coated with 100 ng/ml type I collagen or PBS overnight at room temperature was blocked in 3% BSA for 1 hour at room temperature. After washing the plate with PBS, cell and antibody mixture was added to the wells and the plate was places into an xCelligence machine. Cell adhesion was recorded over 6 hours. The time point of maximum cell adhesion was used for comparison relative to control.

cell-mu all = target: T2, cell-mu all (Mus musculus, UniProt P61622); test: Binding to cells expressing mouse α11
T2 construct: expressed in transfected cells

[5] = Table 11, 1994-01-C7 variants, FIG. 4A
[6] = Table 11, 1994-01-C7 variants, FIG. 4C, read-out: Inhibition of Cell Adhesion IC50

Chain of mouse α11β1 (P61622 23-1141 limits assumed): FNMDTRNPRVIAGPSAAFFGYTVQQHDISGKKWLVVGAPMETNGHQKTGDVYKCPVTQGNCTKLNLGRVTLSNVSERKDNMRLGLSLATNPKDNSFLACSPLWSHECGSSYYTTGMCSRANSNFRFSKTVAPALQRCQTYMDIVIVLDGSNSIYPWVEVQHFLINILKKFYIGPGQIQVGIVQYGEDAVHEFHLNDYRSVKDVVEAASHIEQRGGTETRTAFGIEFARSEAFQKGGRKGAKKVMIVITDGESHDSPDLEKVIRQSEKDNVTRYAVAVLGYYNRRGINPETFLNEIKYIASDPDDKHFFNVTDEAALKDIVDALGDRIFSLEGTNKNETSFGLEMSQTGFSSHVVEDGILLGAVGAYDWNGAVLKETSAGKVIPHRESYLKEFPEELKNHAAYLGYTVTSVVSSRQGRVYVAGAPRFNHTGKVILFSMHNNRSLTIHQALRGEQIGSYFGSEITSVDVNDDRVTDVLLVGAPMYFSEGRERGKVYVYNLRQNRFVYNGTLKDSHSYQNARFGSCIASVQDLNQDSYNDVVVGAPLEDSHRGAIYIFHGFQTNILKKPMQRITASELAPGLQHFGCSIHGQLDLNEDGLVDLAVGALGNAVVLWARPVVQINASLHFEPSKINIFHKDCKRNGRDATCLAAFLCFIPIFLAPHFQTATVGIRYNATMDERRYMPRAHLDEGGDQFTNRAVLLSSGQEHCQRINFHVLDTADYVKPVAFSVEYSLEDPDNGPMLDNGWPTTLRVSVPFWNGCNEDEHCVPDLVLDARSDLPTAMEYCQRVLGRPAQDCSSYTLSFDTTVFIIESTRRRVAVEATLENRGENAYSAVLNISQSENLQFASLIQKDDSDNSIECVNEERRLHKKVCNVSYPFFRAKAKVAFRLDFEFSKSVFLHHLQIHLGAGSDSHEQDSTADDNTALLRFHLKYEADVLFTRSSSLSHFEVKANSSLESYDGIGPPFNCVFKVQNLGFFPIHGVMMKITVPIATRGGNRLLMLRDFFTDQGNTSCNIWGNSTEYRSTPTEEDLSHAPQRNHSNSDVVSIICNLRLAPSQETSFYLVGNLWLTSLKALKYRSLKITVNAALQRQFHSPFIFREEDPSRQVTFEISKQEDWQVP
Chain of mouse α11β1 (P09055 21-728 partner limits assumed): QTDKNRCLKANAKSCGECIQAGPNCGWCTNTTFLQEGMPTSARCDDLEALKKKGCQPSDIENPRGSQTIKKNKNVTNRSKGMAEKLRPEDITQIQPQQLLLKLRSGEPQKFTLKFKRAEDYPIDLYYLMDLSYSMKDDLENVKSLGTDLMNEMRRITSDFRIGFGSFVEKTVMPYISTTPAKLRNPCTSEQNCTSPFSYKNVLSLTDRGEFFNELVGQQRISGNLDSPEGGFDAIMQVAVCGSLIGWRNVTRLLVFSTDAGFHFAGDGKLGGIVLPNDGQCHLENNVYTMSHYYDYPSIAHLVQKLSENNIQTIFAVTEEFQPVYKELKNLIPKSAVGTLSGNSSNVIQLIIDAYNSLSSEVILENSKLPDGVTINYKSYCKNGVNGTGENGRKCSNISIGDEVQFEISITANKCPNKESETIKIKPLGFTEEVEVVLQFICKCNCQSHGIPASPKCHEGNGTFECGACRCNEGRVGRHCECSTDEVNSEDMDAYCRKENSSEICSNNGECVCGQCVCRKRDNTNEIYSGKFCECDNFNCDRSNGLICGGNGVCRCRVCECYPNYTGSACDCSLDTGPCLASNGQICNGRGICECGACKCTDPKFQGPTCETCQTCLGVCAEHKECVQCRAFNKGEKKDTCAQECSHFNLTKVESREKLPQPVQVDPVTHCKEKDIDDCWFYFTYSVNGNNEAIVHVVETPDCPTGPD

B1: 79E3E3: anti-α11β1 monoclonal antibody from rat hybridoma; VH SEQ ID NO: 8, VL SEQ ID NO: 20 (antibody, V domains shown)
VH: QIQLVQSGPEVKKPGESVKISCKASGYTFTDYAMNWVKQAPGNGLKWMGWINTQTGKPTYADDFKQRFVFSLETSARTTYLQINNLNIEDTATYFCTRLGTGNTKGFAYWGQGTLVTVSS
VL: DILINQSPASLTVSAGERVTMSCKSSQSLLYSENNQDYLAWYQQKPGQFPKLLIYGASNRHTGVPDRFTGSGSGTDFTLTISSVQAEDLADYYCEQTYRYPFTFGSGTKLEIK
Q: For B1, which Kd (mouse α11β1; mouse α11β1, method not given, read-out: Cross reacts with mouse α11β1 (affinity)) is on record?
A: 0.21 nM

Q: What about the EC50 (CHO-hu α11 [1]; Table 13, 79E3E3 variants) of the same molecule?
A: 2.5 nM

Q: And the “Inhibits CHO-α11 mediated collagen gel contraction” value [2]?
A: Yes

Q: And the “inhibition of secreted Col1a1” value [3]?
A: inhibition

Q: What about the “inhibition of secreted IL-11” value [3] of the same molecule?
A: inhibition

B2: 1994-01-C7 (#9): anti-α11β1 monoclonal antibody from human phage display; VH SEQ ID NO: 32, VL SEQ ID NO: 37 (antibody, V domains shown)
VH: QVQLVQSGAEVKKPGASVKVSCKASGYTFTSYGISWVRQAPGQGLEWMGWISAYNGNTNYAQKLQGRVTMTTDTSTSTAYMELRSLRSDDTAAYYCARVTGITGTTIDPWGQGTMVTVSS
VL: DIQMTQSPSSLSASVGDRVTITCRASQSISSYLNWYQQKPGKAPKLLIYDASSLESGVPSRFSGSGSGTEFTLTISSLQPDDFAVYYCQQYNNWPQTFGQGTKVEIK
Q: What does the source list for B2?
A: Cross reacts with mouse α11β1 (mouse α11β1): No by SPR; EC50 (CHO-hu α11 [1]; [5]): 3 nM; EC50 (Pulmonary Myofibroblast): 3.6 nM; IC50 (CHO-hu α11 [4]; [6]): 3.4 nM; Inhibits CHO-α11 mediated collagen gel contraction [2]: Yes; binds cell-mu all (cell-mu all): binds; inhibition of secreted Col1a1 [3]: inhibition; inhibition of secreted IL-11 [3]: inhibition

B3: Antibody 54: 1994-01-C7 variant; VH SEQ ID NO: 30, VL SEQ ID NO: 37 (antibody, V domains shown)
VH: QVQLVQSGAEVKKPGASVKVSCKASGYTFTSYGISWVRQAPGQGLEWMGWISAYNANTNYAQKLQGRVTMTTDTSTSTAYMELRSLRSDDTAAYYCARVTGITGTTIGPWGQGTMVTVSS
VL: DIQMTQSPSSLSASVGDRVTITCRASQSISSYLNWYQQKPGKAPKLLIYDASSLESGVPSRFSGSGSGTEFTLTISSLQPDDFAVYYCQQYNNWPQTFGQGTKVEIK
Q: B3 was tested. Which EC50 (CHO-hu α11 [1]; [5]) did it give?
A: 5.5 nM

Q: What about the EC50 (Pulmonary Myofibroblast) of the same molecule?
A: 2.4 nM

Q: And the IC50 (CHO-hu α11 [4]; [6])?
A: 3.5 nM

B4: 16E10: anti-α11β1 monoclonal antibody from B cell sorting; VH SEQ ID NO: 57, VL SEQ ID NO: 62 (antibody, V domains shown)
VH: QSLEESGGDLVKPGASLTLTCRVSGFSFSSSYYMCWVRQAPGKGLEWIACIGTTRGSTYYATWAKGRFTISKISSTTVTLQMTSLTDADTATYFCARDATGYRINTIGLYFNLWGPGTLVTVSS
VL: ELTQTPSSVEAAVGGTPTIKCQASQTIYSYLSWYQQKPGQPPKLLIYEASKLASGVPSRFSGSGSGTDYTLTISDLECADAATYYCQSYHGTASTEYNTFGGGTEVVVK
Q: B4 was tested. Which “Cross reacts with mouse α11β1” value (mouse α11β1) did it give?
A: No

Q: What about the IC50 (CHO-hu α11 [4]; Table 12, 16E10 variants, FIG. 5B, read-out: CHO-α11 Adhesion Inhibition IC50) of the same molecule?
A: 0.4 nM

Q: What about the “Inhibits CHO-α11 mediated collagen gel contraction” value [2] of the same molecule?
A: Yes

Q: What about the “inhibition of secreted Col1a1” value [3] of the same molecule?
A: inhibition

Q: What about the “inhibition of secreted IL-11” value [3] of the same molecule?
A: inhibition
